{"source": "patent US8088892B2", "about": "“Inhibitors of proteins from the Rho-GEF family” (Centre National de la Recherche Scientifique (C.N.R.S.), priority 2002, dated 2012)", "target": "T1, control GEF (GEF720) (Homo sapiens, UniProt O94827)", "T1 construct": "expressed in transfected cells; host or cells: yeast strain TAT7", "T1 sequence (O94827 1-1006)": "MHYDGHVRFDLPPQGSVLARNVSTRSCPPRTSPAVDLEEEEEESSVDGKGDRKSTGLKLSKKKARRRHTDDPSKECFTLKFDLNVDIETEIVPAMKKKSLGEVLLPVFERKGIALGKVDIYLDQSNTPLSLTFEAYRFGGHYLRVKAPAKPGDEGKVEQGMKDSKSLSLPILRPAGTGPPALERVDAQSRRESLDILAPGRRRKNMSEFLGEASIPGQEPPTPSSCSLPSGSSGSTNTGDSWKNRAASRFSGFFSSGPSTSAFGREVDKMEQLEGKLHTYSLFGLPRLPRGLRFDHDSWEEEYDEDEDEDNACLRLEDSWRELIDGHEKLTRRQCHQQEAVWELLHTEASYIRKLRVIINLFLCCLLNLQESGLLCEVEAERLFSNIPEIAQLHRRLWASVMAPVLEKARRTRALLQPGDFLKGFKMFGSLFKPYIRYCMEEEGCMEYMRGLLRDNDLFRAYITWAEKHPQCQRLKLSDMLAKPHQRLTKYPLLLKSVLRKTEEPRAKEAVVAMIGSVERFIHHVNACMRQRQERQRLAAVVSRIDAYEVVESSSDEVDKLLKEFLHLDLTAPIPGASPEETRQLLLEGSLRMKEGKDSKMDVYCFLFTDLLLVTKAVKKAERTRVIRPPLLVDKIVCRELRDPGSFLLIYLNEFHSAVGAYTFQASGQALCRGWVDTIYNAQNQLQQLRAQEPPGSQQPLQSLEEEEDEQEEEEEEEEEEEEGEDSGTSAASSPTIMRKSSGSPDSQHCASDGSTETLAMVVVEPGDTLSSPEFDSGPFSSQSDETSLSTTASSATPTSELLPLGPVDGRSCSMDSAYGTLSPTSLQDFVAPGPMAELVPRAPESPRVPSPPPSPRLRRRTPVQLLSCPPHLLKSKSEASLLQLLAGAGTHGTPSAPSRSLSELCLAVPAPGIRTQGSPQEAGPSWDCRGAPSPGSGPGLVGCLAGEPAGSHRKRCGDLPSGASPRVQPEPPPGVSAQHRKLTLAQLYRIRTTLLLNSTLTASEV", "assay": "Yeast Exchange Assay (YEA), RhoA activation", "assay_type": "cell-based", "conditions": "yeast strain TAT7, reporter gene", "text": "The wild type GTPase is fused to the LexA DNA binding domain (Matchmaker GAL4 two-hybrid, Clontech Laboratories, Inc., USA) and the effector to the […] (Matchmaker GAL4 two-hybrid, Clontech, Inc., USA). Under these conditions, no binding occurs in the TAT7 strain (De Toledo et al., 2000). Upon addition of a third plasmid expressing the GEF, the GTPase gets activated and binds to its effector, thus leading to the transactivation of the reporter gene LacZ.\nTrioGEFD2, a control GEF (GEF720) or an empty vector (−GEF: corresponds to a vector without GEF) were introduced into the YEA system and analysed for their ability to transactivate the reporter gene in absence (left panel) or in the presence (right panel) of TRIPα.\nIn order to better characterise the effect of TRIAPα on the Trio full length RhoGEF activity, the yeast exchange assay (YEA) was used, which is a quick and quantitative test derived from the classical two-hybrid system allowing to measure Rho-GEF activity and specificity (De Toledo et al., 2000). This functional assay is based on the fact that the GTPase binds to its effector only if it is activated by a RhoGEF. Briefly, yeasts are transformed with the GTPase fused to the LexA binding domain (LexA), and its effector to the GAL-4 Activating Domain (GAD), and with the adequate Rho-GEF partner in the yeast strain TAT7 (FIG. 7). […]", "data": [{"sequence": "AREGADGAICGYNLATLVMLGPSERVFCPLCEPCSSDIYELM [TRIPα, 42-amino acid peptide corresponding to the variable region of TRIAPα]", "values": [{"measurement": "Effect on control GEF (GEF720) in the YEA system", "result": "the control GEF is unaffected"}]}]}
